In patent US20200207850A1 (MacroGenics, published 2020):
Like-named read-outs stand apart in the source and are kept apart here.

How the values were obtained:
human CD3 = human CD3 (human, UniProt P07766 23-126); experiment: binding kinetics sensorgram (RU against time), panel labelled hCD3
[1] = target: T1, 5T4 on JIMT-1 target cells (UniProt Q13641 32-420, limits assumed); experiment: cell-based or functional assay
T1 sequence (looked up): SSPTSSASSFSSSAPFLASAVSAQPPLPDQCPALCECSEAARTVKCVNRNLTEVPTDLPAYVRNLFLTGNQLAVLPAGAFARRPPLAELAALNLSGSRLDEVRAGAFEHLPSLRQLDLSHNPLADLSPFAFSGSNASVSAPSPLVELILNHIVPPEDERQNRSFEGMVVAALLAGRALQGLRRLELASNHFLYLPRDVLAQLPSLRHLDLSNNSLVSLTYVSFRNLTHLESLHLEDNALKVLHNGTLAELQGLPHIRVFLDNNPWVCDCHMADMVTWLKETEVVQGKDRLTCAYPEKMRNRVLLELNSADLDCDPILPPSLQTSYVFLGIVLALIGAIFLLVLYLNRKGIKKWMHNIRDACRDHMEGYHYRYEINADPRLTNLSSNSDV

[2] = target: T2, CD8 on human T cells (PBMC) (human, UniProt P01732 22-235); experiment: flow cytometry on human PBMC, CD5+/CD4- gated cells (bear CD8 and CD3), detection anti-human Fc (MFI)
T2 construct: whole, on cells; The CD8+ (CD5+ CD4-) cells also carry CD3; also called CD5+ CD4- gated PBMC; CD8+ T cells
T2 sequence (P01732 22-235): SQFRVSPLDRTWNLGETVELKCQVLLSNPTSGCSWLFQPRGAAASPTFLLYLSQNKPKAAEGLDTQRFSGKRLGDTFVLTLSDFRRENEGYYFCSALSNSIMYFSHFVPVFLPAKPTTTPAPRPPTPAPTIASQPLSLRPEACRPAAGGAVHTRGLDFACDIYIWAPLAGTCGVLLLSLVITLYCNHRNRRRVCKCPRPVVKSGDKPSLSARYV

[3] = target: HIV env on Jurkat 522 FY cells (HIV); experiment: cell-based or functional assay
[4] = target: T2, CD8 on human T cells (PBMC); experiment: flow cytometry on human PBMC, CD5+/CD4- gated cells (bear CD8 and CD3), detection anti-human Fc (MFI); remark: listed apart in the source
Procedure: Human blood was lysed with ACK lysing buffer, washed 2× with PBS and re-suspended in FACS buffer contained 10% Human AB serum and incubated at room temperature for 20 minutes. Thereafter, the cells were pelleted by centrifugation and re-suspended (4×10⁶ cells/mL) in FACS buffer. 50 μL of serial titrated Tri-Specific Binding Molecules were added into wells of a 96-well deep plate. 50 μL of the cells (4×10⁶ cells/mL) well-mixed cells in FACS buffer containing 0.01% sodium azide were then added into corresponding wells and mixed thoroughly using a pipette. The plate was incubated in the dark for about 45 minutes at 2-8° C. At the end of incubation, the cells were washed twice by adding 300 μL of FACS buffer to each well, the plate was centrifuged at 1,200 rpm for 5 minutes, and the supernatant was discarded. The cell pellets were re-suspended in 100 μL mixture of goat anti-Human IgG Fcγ-PE, CD5-APC and CD4-PerCP5.5 prepared in FACS buffer containing 0.01% sodium azide, and the cells were incubated in the dark for about 45 minutes at 2-8° C. At the end of the incubation, the cells were washed, re-suspended with FACS buffer, and analyzed with a BD Caliber flow cytometer.

[5] = target: HIV env on Jurkat 522 FY cells (HIV); experiment: cell-based or functional assay; remark: listed apart in the source

human CD3, sequence (P07766 23-126): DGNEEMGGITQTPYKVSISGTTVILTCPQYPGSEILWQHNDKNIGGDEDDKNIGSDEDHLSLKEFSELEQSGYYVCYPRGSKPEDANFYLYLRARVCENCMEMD

B1: DART molecule having the CD3 mAb 2 Fast Binding Domain (bispecific antibody, V domains shown)
VH: EVQLVESGGGLVQPGGSLRLSCAASGFTFSTYAMNWVRQAPGKGLEWVGRIRSKYNNYATYYADSVKGRFTISRDDSKNSLYLQMNSLKTEDTAVYYCVRHKNFGNSYVTWFAYWGQGTLVTVSS
VL: QAVVTQEPSLTVSPGGTVTLTCRSSTGAVTTSNYANWVQQKPGQAPRGLIGGTNKRAPWTPARFSGSLLGGKAALTITGAQAEDEADYYCALWYSNLWVFGGGTKLTVLG
notes: also called anti-human CD3 mAb 2 Fast
Human CD3
  Kd: 13900 pM

B2: 5T4 mAb 2/CD3 mAb 2/CD8 mAb 1 Tri-Specific Binding Molecule (other)
chain 1: DVLMTQTPLSLPVSLGDQASISCRSSQSIVYSNGNTYLEWYLQKPGQSPKLLIYKVSNRFSGVPDRFSGSGSGTDFTLKISRVEAEDLGVYYCFQGSHVPFTFGSGTKLEIKGGGSGGGGEVQLVESGGGLVQPGGSLRLSCAASGFTFSTYAMNWVRQAPGKGLEWVGRIRSKYNNYATYYADSVKGRFTISRDDSKNSLYLQMNSLKTEDTAVYYCVRHGNFGNSYVSWFAYWGQGTLVTVSSGGCGGGEVAALEKEVAALEKEVAALEKEVAALEKGGGDKTHTCPPCPAPEAAGGPSVFLFPPKPKDTLMISRTPEVTCVVVDVSHEDPEVKFNWYVDGVEVHNAKTKPREEQYNSTYRVVSVLTVLHQDWLNGKEYKCKVSNKALPAPIEKTISKAKGQPREPQVYTLPPSREEMTKNQVSLWCLVKGFYPSDIAVEWESNGQPENNYKTTPPVLDSDGSFFLYSKLTVDKSRWQQGNVFSCSVMHEALHNHYTQKSLSLSPGK
chain 2: QAVVTQEPSLTVSPGGTVTLTCRSSTGAVTTSNYANWVQQKPGQAPRGLIGGTNKRAPWTPARFSGSLLGGKAALTITGAQAEDEADYYCALWYSNLWVFGGGTKLTVLGGGGSGGGGQVQLQQPGAELVKPGASVKMSCKASGYTFTSYWITWVKQRPGQGLEWIGDIYPGSGRANYNEKFKSKATLTVDTSSSTAYMQLSSLTSEDSAVYNCARYGPLFTTVVDPNSYAMDYWGQGTSVTVSSGGCGGGKVAALKEKVAALKEKVAALKEKVAALKE
heavy: EVQLQQSGAELVKPGASVKLSCTASGFNIKDTYIHFVRQRPEQGLEWIGRIDPANDNTLYASKFQGKATITADTSSNTAYMHLCSLTSGDTAVYYCGRGYGYYVFDHWGQGTTLTVSSASTKGPSVFPLAPSSKSTSGGTAALGCLVKDYFPEPVTVSWNSGALTSGVHTFPAVLQSSGLYSLSSVVTVPSSSLGTQTYICNVNHKPSNTKVDKRVEPKSCDKTHTCPPCPAPEAAGGPSVFLFPPKPKDTLMISRTPEVTCVVVDVSHEDPEVKFNWYVDGVEVHNAKTKPREEQYNSTYRVVSVLTVLHQDWLNGKEYKCKVSNKALPAPIEKTISKAKGQPREPQVYTLPPSREEMTKNQVSLSCAVKGFYPSDIAVEWESNGQPENNYKTTPPVLDSDGSFFLVSKLTVDKSRWQQGNVFSCSVMHEALHNRYTQKSLSLSPGK
light: DVQINQSPSFLAASPGETITINCRTSRSISQYLAWYQEKPGKTNKLLIYSGSTLQSGIPSRFSGSGSGTDFTLTISGLEPEDFAMYYCQQHNENPLTFGAGTKLELRRTVAAPSVFIFPPSDEQLKSGTASVVCLLNNFYPREAKVQWKVDNALQSGNSQESVTEQDSKDSTYSLSSTLTLSKADYEKHKVYACEVTHQGLSSPVTKSFNRGEC
[1]
  EC50 (nM) of killing, CD4+ effector cells, JIMT1-luc target cells, E:T 5:1: 0.0435 nM
  EC50 (nM) of killing, CD8+ effector cells, JIMT1-luc target cells, E:T 5:1: 0.0013 nM
  EC50 (nM) of killing, PanT effector cells, JIMT1-luc target cells, E:T 5:1: 0.002 nM
[2]
  EC50 (read off the curve): ~2000 pM

B3: HIV mAb 1/CD3 mAb 2/CD8 mAb 1 Tri-Specific Binding Molecule (other)
chain 1: DIVMTQSPDSLAVSPGERATIHCKSSQTLLYSSNNRHSIAWYQQRPGQPPKLLLYWASMRLSGVPDRFSGSGSGTDFTLTINNLQAEDVAIYYCHQYSSHPPTFGHGTRVEIKGGGSGGGGEVQLVESGGGLVQPGGSLRLSCAASGFTFSTYAMNWVRQAPGKGLEWVGRIRSKYNNYATYYADSVKGRFTISRDDSKNSLYLQMNSLKTEDTAVYYCVRHGNFGNSYVSWFAYWGQGTLVTVSSASTKGEVAACEKEVAALEKEVAALEKEVAALEKGGGDKTHTCPPCPAPEAAGGPSVFLFPPKPKDTLMISRTPEVTCVVVDVSHEDPEVKFNWYVDGVEVHNAKTKPREEQYNSTYRVVSVLTVLHQDWLNGKEYKCKVSNKALPAPIEKTISKAKGQPREPQVYTLPPSREEMTKNQVSLWCLVKGFYPSDIAVEWESNGQPENNYKTTPPVLDSDGSFFLYSKLTVDKSRWQQGNVFSCSVMHEALHNHYTQKSLSLSPGK
chain 2: QAVVTQEPSLTVSPGGTVTLTCRSSTGAVTTSNYANWVQQKPGQAPRGLIGGTNKRAPWTPARFSGSLLGGKAALTITGAQAEDEADYYCALWYSNLWVFGGGTKLTVLGGGGSGGGGQVQLVQSGGGVFKPGGSLRLSCEASGFTFTEYYMTWVRQAPGKGLEWLAYISKNGEYSKYSPSSNGRFTISRDNAKNSVFLQLDRLSADDTAVYYCARADGLTYFSELLQYIFDLWGQGARVTVSSASTKGKVAACKEKVAALKEKVAALKEKVAALKE
heavy: EVQLQQSGAELVKPGASVKLSCTASGFNIKDTYIHFVRQRPEQGLEWIGRIDPANDNTLYASKFQGKATITADTSSNTAYMHLCSLTSGDTAVYYCGRGYGYYVFDHWGQGTTLTVSSASTKGPSVFPLAPSSKSTSGGTAALGCLVKDYFPEPVTVSWNSGALTSGVHTFPAVLQSSGLYSLSSVVTVPSSSLGTQTYICNVNHKPSNTKVDKRVEPKSCDKTHTCPPCPAPEAAGGPSVFLFPPKPKDTLMISRTPEVTCVVVDVSHEDPEVKFNWYVDGVEVHNAKTKPREEQYNSTYRVVSVLTVLHQDWLNGKEYKCKVSNKALPAPIEKTISKAKGQPREPQVYTLPPSREEMTKNQVSLSCAVKGFYPSDIAVEWESNGQPENNYKTTPPVLDSDGSFFLVSKLTVDKSRWQQGNVFSCSVMHEALHNRYTQKSLSLSPG
light: B2 light
[3]
  EC50, nM, % cytotoxicity (LDH), Jurkat Cells 522FY, CD4 effector cells: 0.36 nM
  EC50, nM, % cytotoxicity (LDH), Jurkat Cells 522FY, CD8 effector cells: 0.00781 nM
  EC50, nM, % cytotoxicity (LDH), Jurkat Cells 522FY, Pan T effector cells: 0.044 nM
[4]
  EC50 (read off the curve): ~800 pM
[5]
  EC50 nM, % cytotoxicity (LDH), Jurkat Cells 522FY, E/T = 5:1: 0.00019 nM
  EC50 nM, % cytotoxicity (LDH), Jurkat Cells 522FY, E/T = 10:1: 0.00029 nM

B4: HIV mAb 2/CD3 mAb 2/CD8 mAb 1 Tri-Specific Binding Molecule (other)
chain 1: QSALTQPPSASGSPGQSVTISCTGTSSDVGGYNYVSWYQHHPGKAPKLIISEVNNRPSGVPDRFSGSKSGNTASLTVSGLQAEDEAEYYCSSYTDIHNFVFGGGTKLTVLGGGSGGGGEVQLVESGGGLVQPGGSLRLSCAASGFTFSTYAMNWVRQAPGKGLEWVGRIRSKYNNYATYYADSVKGRFTISRDDSKNSLYLQMNSLKTEDTAVYYCVRHGNFGNSYVSWFAYWGQGTLVTVSSASTKGEVAACEKEVAALEKEVAALEKEVAALEKGGGDKTHTCPPCPAPEAAGGPSVFLFPPKPKDTLMISRTPEVTCVVVDVSHEDPEVKFNWYVDGVEVHNAKTKPREEQYNSTYRVVSVLTVLHQDWLNGKEYKCKVSNKALPAPIEKTISKAKGQPREPQVYTLPPSREEMTKNQVSLWCLVKGFYPSDIAVEWESNGQPENNYKTTPPVLDSDGSFFLYSKLTVDKSRWQQGNVFSCSVMHEALHNHYTQKSLSLSPGK
chain 2: QAVVTQEPSLTVSPGGTVTLTCRSSTGAVTTSNYANWVQQKPGQAPRGLIGGTNKRAPWTPARFSGSLLGGKAALTITGAQAEDEADYYCALWYSNLWVFGGGTKLTVLGGGGSGGGGQVQLQESGPGLVKPSQTLSLSCTVSGGSSSSGAHYWSWIRQYPGKGLEWIGYIHYSGNTYYNPSLKSRITISQHTSENQFSLKLNSVTVADTAVYYCARGTRLRTLRNAFDIWGQGTLVTVSSASTKGKVAACKEKVAALKEKVAALKEKVAALKE
heavy: B3 heavy
light: B2 light
[3]
  EC50, nM, % cytotoxicity (LDH), Jurkat Cells 522FY, CD4 effector cells: 0.45 nM
  EC50, nM, % cytotoxicity (LDH), Jurkat Cells 522FY, CD8 effector cells: 0.0004 nM
  EC50, nM, % cytotoxicity (LDH), Jurkat Cells 522FY, Pan T effector cells: 0.0015 nM
[4]
  EC50 (read off the curve): ~600 pM
[5]
  EC50 nM, % cytotoxicity (LDH), Jurkat Cells 522FY, E/T = 5:1: 0.00032 nM
  EC50 nM, % cytotoxicity (LDH), Jurkat Cells 522FY, E/T = 10:1: 0.00026 nM

B5: 5T4 mAb 2/CD3 mAb 2/CD8 mAb 2 Tri-Specific Binding Molecule (other)
chain 1: B2 chain 1
chain 2: B2 chain 2
heavy: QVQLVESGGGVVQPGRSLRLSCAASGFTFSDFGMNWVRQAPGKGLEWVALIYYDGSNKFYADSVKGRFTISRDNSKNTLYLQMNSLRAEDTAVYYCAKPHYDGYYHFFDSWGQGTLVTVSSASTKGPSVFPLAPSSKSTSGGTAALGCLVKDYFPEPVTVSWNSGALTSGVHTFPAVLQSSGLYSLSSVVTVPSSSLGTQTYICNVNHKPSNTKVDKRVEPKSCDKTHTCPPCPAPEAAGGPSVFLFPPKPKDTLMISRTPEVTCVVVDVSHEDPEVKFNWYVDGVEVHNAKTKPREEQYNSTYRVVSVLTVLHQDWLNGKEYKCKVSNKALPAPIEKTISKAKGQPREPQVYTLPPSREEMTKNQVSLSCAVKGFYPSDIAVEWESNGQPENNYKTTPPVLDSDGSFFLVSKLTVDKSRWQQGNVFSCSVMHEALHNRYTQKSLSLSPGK
light: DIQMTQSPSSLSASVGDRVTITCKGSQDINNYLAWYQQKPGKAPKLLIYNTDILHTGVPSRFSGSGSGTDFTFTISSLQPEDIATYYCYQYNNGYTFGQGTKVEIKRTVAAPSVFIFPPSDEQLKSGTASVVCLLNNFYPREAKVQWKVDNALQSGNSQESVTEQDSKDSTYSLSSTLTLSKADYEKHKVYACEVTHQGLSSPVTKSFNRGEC
[1]
  EC50 (nM) of killing, CD4+ effector cells, JIMT1-luc target cells, E:T 5:1: 0.0336 nM
  EC50 (nM) of killing, CD8+ effector cells, JIMT1-luc target cells, E:T 5:1: 0.0015 nM
  EC50 (nM) of killing, PanT effector cells, JIMT1-luc target cells, E:T 5:1: 0.0018 nM
[2]
  EC50 (read off the curve): ~2000 pM
